Results from US20180265572A1 (Bristol-Myers Squibb, published 2018).
Several values for one entry are separate records, joined by “and”; a condition that tells them apart may be missing. Identical values can stand only once.

Assays:
[1] = molecular target: T1, VEGFR2-Fc (R&D Systems) (UniProt P35968 20-764); assay: SPR (Biacore), VEGFR2-Fc immobilised directly on a CM5 chip
T1 construct: Bought reagent; not shown: Fc part of the bought fusion; not described

[2] = molecular target: T2, human IGF-IR-Fc fusion (human, UniProt P08069 31-932); assay: SPR (Biacore), IGF-IR-Fc captured on Protein A
T2 construct: range 1-932; If it counts on the precursor, it includes the signal peptide; also called IGF1R-Fc; not shown: hinge and constant regions of human IgG
T2 sequence (P08069 31-932 limits assumed, form in doubt): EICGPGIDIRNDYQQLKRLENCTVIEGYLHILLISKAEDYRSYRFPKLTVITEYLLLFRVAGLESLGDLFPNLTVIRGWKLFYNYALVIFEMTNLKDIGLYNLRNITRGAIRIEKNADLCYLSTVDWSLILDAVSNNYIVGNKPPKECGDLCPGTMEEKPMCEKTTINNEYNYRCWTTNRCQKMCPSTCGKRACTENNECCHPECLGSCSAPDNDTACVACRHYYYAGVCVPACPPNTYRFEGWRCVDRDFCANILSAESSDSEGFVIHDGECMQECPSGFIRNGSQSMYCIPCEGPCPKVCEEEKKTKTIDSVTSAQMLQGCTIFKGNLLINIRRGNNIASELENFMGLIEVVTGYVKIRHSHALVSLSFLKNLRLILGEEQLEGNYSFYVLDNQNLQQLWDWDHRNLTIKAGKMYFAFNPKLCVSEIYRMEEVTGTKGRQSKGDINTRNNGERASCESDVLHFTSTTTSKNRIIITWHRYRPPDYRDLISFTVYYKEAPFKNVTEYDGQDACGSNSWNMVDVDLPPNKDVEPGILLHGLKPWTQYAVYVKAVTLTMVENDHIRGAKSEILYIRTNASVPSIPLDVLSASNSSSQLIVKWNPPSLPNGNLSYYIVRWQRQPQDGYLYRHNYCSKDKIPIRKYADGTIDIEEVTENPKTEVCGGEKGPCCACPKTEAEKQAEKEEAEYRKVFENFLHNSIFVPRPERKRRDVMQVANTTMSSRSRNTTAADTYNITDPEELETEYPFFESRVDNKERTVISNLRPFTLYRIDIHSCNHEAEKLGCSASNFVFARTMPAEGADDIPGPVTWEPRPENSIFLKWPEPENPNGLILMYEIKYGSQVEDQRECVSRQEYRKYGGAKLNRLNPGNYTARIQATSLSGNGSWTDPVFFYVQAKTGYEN
Excerpt: (§1) An alternative method is to capture the IGF—IR-Fc on Protein A. This method was used for calculating the affinity and kinetics of certain versions of the construct 385A08-Fn-V2B-cys (both pegylated and non-pegylated and with or without his tag) from midscale and large scale materials. Specifically, IGF—IR-Fc was captured on Protein A immobilized on a Biacore CM5 sensor chip by amine coupling. VEGFR2-Fc was immobilized directly on a CM5 chip by amine coupling. The affinity and kinetic analysis involved the capture of IGF—IR-Fc on Protein A followed by injection of the tandem adnectin in solution over IGF—IR-Fc and VEGFR2-Fc. The analytical surface was regenerated between samples with glycine pH 1.5. Sensorgrams were obtained at each concentration and were evaluated using Biacore T100 evaluation software to determine the rate constants kₐ (kₒₙ) and kd (koff).

[3] = molecular target: T3, VEGFR-2 (KDR) on transfected cells (UniProt P35968 20-1356, limits assumed); assay: competitive blocking assay on 293:KDR cells; competitor 200 nM IRDye 800CW-labelled Peg-V2Bshort
T3 construct: whole, on cells; also called Flk-1
T3 sequence (P35968 20-1356 limits assumed): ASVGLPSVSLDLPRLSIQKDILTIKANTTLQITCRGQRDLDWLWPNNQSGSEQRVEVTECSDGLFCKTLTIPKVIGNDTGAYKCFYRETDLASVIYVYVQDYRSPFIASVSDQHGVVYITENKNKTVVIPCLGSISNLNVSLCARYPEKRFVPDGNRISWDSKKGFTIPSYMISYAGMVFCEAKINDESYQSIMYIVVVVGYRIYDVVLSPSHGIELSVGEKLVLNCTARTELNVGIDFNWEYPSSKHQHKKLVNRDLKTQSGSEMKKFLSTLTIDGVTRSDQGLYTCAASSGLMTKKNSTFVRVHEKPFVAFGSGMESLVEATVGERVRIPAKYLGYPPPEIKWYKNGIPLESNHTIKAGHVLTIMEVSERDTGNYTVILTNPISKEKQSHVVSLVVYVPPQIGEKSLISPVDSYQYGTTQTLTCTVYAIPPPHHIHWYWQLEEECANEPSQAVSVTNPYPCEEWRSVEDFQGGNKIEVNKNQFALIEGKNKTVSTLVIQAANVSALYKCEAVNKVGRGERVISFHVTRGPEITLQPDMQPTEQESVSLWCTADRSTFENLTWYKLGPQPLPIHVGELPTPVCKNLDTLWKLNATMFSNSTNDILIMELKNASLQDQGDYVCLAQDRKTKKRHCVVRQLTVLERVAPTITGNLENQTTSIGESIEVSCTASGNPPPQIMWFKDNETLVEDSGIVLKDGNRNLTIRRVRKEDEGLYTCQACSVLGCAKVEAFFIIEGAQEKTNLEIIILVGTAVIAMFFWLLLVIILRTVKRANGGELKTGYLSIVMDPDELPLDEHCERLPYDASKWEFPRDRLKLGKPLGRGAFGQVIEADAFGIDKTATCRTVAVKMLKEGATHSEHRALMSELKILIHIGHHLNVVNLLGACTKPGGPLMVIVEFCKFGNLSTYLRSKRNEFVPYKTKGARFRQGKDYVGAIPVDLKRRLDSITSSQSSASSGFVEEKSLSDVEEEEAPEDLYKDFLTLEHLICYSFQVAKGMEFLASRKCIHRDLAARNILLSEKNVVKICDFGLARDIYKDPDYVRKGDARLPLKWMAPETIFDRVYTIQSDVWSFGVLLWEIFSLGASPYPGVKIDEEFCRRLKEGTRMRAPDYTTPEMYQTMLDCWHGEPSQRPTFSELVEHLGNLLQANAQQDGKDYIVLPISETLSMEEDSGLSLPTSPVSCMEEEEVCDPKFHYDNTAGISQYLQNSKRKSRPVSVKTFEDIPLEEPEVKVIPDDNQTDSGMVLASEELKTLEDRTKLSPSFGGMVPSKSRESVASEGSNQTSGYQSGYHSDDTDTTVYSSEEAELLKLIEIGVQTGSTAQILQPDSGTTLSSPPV
Procedure: (§2) Similarly, the pegylated, his-tagged construct 385A08-Fn-V2B-cys was able to block the interaction of a mono-specific ¹⁰Fn3-based VEGFR-2 binder (Peg-V2Bshort, SEQ ID NO: 28) with VEGFR-2 present on 293:KDR cells. […] In particular, in a Ba/F3 assay (described below), the IC₅₀ for the monomeric, non-pegylated VEGFR2 binder V2Bshort (SEQ ID NO: 28) is approximately 0.1-3 nM whereas the IC₅₀ for the monomeric, non-pegylated VEGFR2 binder having SEQ ID NO: 44 (e.g., with an N-terminal extension) is approximately 8-13 nM. […] Both the R⁺ and 293:KDR cell based competitive blocking assays are described in detail in the materials and methods section below.
(§3) 293:KDR (Sibtech, Brookfield, Conn.) were plated in 96 well plates at a concentration of 25,000 cells per well in DMEM (Invitrogen, Carlsbad, Calif.) containing 10% fetal bovine serum (Hyclone, Logan, Utah). The following day, cells were washed twice in serum free DMEM containing 0.1% BSA (Invitrogen, Carlsbad, Calif.). After the washes, the cells were incubated at 4° C. for 10 minutes in binding buffer (serum free DMEM+0.1% BSA) containing increasing concentrations of VEGFR-2 antagonists or controls. Typical controls included the mono-specific ¹⁰Fn3-based VEGFR2 binder (Peg-V2Bshort, SEQ ID NO: 28) (positive control) or the mono-specific ¹⁰Fn3-based IGF-IR binder (AT580-PEG40, SEQ ID NO: 27) (negative control). […]

[4] = molecular target: T1, VEGFR2-Fc (R&D Systems); assay: SPR (Biacore), immobilized VEGFR2-Fc, midscale purified binder
[5] = molecular target: T2, human IGF-IR-Fc fusion; assay: SPR (Biacore), IGF1R-Fc captured on Protein A
Procedure: (§4) Affinity data was also measured from midscale and large scale material, for the pegylated version of the tandem construct 385A08-Fn-V2B-cys (SEQ ID NO: 9, with and without his tag). The specific materials and methods for these calculations are described below.
as §1

[6] = molecular target: T3, VEGFR-2 (KDR) on transfected cells; assay: competitive blocking assay on 293:KDR cells; ratio of the IC50 values
Procedure: as §2, §3

[7] = molecular target: T4, human IGF-IR on cells (human, UniProt P08069 31-1367); assay: competitive blocking assay on R+ cells overexpressing human IGF-IR; competitor 200 nM IRDye 800CW-labelled AT580-PEG20-AT580
T4 construct: whole, on cells; also called cell surface IGF-IR
T4 sequence (P08069 31-1367 limits assumed, form in doubt): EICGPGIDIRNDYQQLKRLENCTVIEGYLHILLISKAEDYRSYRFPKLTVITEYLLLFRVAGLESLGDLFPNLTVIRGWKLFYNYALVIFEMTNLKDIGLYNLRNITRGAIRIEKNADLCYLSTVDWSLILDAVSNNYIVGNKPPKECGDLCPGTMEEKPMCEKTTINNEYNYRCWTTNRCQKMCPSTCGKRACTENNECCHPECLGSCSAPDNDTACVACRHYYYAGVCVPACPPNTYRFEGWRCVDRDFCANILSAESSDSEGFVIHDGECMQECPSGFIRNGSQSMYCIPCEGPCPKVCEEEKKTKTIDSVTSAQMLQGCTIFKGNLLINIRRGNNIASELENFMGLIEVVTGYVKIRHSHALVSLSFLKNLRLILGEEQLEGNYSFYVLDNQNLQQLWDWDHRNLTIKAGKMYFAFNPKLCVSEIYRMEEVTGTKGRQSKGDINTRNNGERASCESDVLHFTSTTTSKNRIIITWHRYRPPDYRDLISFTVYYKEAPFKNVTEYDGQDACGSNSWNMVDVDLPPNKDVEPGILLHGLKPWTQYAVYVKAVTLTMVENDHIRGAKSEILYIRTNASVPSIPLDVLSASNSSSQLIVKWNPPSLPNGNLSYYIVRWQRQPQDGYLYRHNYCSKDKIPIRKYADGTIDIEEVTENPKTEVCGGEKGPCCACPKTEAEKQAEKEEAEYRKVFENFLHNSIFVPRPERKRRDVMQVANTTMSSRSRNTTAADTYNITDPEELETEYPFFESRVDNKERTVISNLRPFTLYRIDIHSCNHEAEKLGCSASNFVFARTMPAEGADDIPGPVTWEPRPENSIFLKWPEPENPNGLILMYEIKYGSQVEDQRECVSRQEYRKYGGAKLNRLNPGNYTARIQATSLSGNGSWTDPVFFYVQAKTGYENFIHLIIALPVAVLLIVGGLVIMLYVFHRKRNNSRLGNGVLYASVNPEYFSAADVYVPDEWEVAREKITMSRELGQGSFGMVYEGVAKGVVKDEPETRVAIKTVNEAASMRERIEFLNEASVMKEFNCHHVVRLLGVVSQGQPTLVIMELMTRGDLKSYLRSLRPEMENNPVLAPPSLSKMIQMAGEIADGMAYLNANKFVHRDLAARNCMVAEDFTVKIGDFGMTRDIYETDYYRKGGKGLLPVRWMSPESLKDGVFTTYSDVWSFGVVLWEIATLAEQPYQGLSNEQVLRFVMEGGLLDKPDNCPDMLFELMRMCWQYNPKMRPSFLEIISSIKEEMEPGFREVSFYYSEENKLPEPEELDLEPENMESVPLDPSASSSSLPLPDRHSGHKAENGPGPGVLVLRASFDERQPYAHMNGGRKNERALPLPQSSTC
Procedure: Certain tandem constructs were evaluated for their ability to compete with mono-specific IGF-IR and VEGFR-2 binders in vitro.
R⁺, a gift from Renato Baserga (Thomas Jefferson University, Philadelphia, Pa.), is a mouse embryo fibroblast overexpressing human IGF-IR in the context of a deletion in the mouse IGF-IR gene. Cells were plated in 96 well plates at a concentration of 20,000 cells per well in DMEM (Invitrogen, Carlsbad, Calif.) containing 5% calf serum (Hyclone, Logan, Utah). The following day, cells were washed twice in serum free DMEM containing 0.1% BSA (Invitrogen, Carlsbad, Calif.). After the washes, the cells were incubated at 4° C. for 10 minutes in binding buffer (serum free DMEM+0.1% BSA) containing increasing concentrations of IGF-IR antagonists or controls. Typical controls included the mono-specific ¹⁰Fn3-based IGF-IR binder (AT580-PEG40, SEQ ID NO: 27) (positive control) or the mono-specific ¹⁰Fn3-based VEGFR2 binder (Peg-V2Bshort, SEQ ID NO: 28) (negative control). Following this brief exposure to antagonists, R⁺ cells were additionally exposed to 200 nM of a bi-valent ¹⁰Fn3-based IGF-IR binder (AT580-PEG20-AT580, SEQ ID NO: 27) labeled with IRDye 800CW according to the manufacturer instructions (Li-Cor Biosciences, Lincoln, Nebr.). […] The resulting data was analyzed using GraphPad Prism (GraphPad Software, La Jolla, Calif.).

[8] = molecular target: T2, human IGF-IR-Fc fusion; assay: SPR (Biacore), captured IGF1R-Fc, midscale purified binder
[9] = molecular target: VEGFR-2 in nude mice (in vivo) (UniProt P35918 20-1345, limits assumed); assay: cell-based or functional assay
[10] = molecular target: VEGFR-2 in cynomolgus monkeys (in vivo); assay: cell-based or functional assay
[11] = molecular target: T1, VEGFR2-Fc (R&D Systems); assay: SPR (Biacore), VEGFR2-Fc immobilized directly on the chip
Procedure: as §4, §1
The functionality of the V2B domain was assessed by evaluating a concentration series of the midscale and large scale purification of the tandem construct 385A08-Fn-V2B (pegylated, and non-pegylated versions, his-tag and non-his-tag versions) vs. VEGFR2-Fc that was directly immobilized on a CM5 chip surface (GE, Piscataway, N.J.). VEGFR2-Fc (R&D Systems, MN) was diluted to 12 ug/mL in 50 mM Acetate pH 5.0 for an immobilization level of ˜1300 RU. Varying concentrations of 385A08-Fn-V2B in the solution phase were monitored for association (2 minutes) and dissociation (10 minutes) kinetics at a flow rate of 50 uL/min. Two 30 second injections of 50 mM glycine pH 1.7 were used to regenerate the surface.

[12] = molecular target: rat IGF1R (rat, UniProt P24062 31-933, limits assumed); assay: method not stated; rat IGF1R
[13] = molecular target: human IGF1R (human, UniProt P08069 31-932, limits assumed); assay: method not stated; human IGF1R
Sequence of human IGF1R (P08069 31-932 limits assumed): as the sequence (P08069 31-932 limits assumed, form in doubt) above

[14] = molecular target: mouse IGF1R (mouse, UniProt Q60751 31-933, limits assumed); assay: method not stated; mouse IGF1R
[15] = molecular target: monkey IGF1R (monkey); assay: method not stated

T1 sequence (P35968 20-764 limits assumed): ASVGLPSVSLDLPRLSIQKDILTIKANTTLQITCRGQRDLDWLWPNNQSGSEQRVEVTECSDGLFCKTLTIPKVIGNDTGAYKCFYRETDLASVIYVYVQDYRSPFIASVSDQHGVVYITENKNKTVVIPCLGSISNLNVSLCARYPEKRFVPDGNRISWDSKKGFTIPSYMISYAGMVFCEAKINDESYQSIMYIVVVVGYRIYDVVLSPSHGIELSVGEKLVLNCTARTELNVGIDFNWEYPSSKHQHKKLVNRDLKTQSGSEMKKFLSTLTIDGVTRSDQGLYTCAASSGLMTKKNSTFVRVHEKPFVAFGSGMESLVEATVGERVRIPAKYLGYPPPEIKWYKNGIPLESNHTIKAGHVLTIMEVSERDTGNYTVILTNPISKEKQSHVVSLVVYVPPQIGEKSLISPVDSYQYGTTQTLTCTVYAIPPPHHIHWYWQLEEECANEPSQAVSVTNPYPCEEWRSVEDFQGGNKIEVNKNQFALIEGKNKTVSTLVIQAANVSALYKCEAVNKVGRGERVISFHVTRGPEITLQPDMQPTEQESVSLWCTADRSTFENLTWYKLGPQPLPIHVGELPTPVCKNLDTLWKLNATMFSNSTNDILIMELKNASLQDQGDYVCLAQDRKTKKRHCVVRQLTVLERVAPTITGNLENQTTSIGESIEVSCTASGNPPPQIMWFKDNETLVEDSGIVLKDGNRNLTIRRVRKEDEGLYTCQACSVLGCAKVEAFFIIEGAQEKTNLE

B1: pegylated, his-tagged 385A08-Fn-V2B-cys (designed binder)
chain: MGVSDVPRDLEVVAATPTSLLISWSARLKVARYYRITYGETGGNSPVQEFTVPKNVYTATISGLKPGVDYTITVYAVTRFRDYQPISINYRTEIDKPSTSTSTVSDVPRDLEVVAATPTSLLISWRHPHFPTRYYRITYGETGGNSPVQEFTVPLQPPTATISGLKPGVDYTITVYAVTDGRNGRLLSIPISINYRTEIDKPCQHHHHHH
modifications: 40 kD PEG on the single cysteine at position 203 (linear PEG in paragraph 246; type of PEG not stated in Example 6)
notes: also called 385A08-Fn-V2B-cys (with PEG and his-tag); linear pegylated, his-tagged 385A08-Fn-V2B-cys
- Kd [1]: 0.014 µM
- Kd [2]: 0.0012 µM
- IC50 [3]: ~0.14 µM
- koff [4]: 0.000149 s⁻¹
- kon [4]: 10600 M⁻¹ s⁻¹
- Kd [5]: 0.000831 µM and 0.000465 µM and 0.000857 µM
- koff [5]: 0.00025 s⁻¹ and 0.000223 s⁻¹ and 0.000238 s⁻¹
- kon [5]: 299000 M⁻¹ s⁻¹ and 480000 M⁻¹ s⁻¹ and 277000 M⁻¹ s⁻¹
- fold difference in activity against Peg-V2Bshort [6]: 7 fold
- IC50 [7]: 0.9 µM
- koff [8]: 0.000233 s⁻¹
- kon [8]: 200000 M⁻¹ s⁻¹
- plasma IC50, indirect-response PD model, nude mice bearing the Rh41 tumor [9]: 13.8 µM
- plasma IC50 (grand mean), PK/PD model, monkeys [10]: 0.228 µM
- Kd [11]: 0.011 µM and 0.00596 µM and 0.0126 µM
- koff [11]: 9.5e-05 s⁻¹ (2×) and 0.00013 s⁻¹
- kon [11]: 8600 M⁻¹ s⁻¹ and 21800 M⁻¹ s⁻¹ and 7530 M⁻¹ s⁻¹

B2: 385A08-Fn-V2B-cys (with Peg) (designed binder)
chain: MGVSDVPRDLEVVAATPTSLLISWSARLKVARYYRITYGETGGNSPVQEFTVPKNVYTATISGLKPGVDYTITVYAVTRFRDYQPISINYRTEIDKPSTSTSTVSDVPRDLEVVAATPTSLLISWRHPHFPTRYYRITYGETGGNSPVQEFTVPLQPPTATISGLKPGVDYTITVYAVTDGRNGRLLSIPISINYRTEIDKPCQ
modifications: PEG on the single cysteine at position 203
- Kd [12]: 0.092 µM
- Kd [13]: 0.000277 µM
- Kd [14]: 0.086 µM
- Kd [15]: 0.000213 µM
